Measured values reported in PMC4329502.

Columns and labels:
HER2 antigen = HER2 antigen (UniProt P04626); test: ELISA
[1] = target: EGFR1 antigen (Homo sapiens (assumed)) (UniProt P00533); test: ELISA

Substance	Kd (HER2 antigen)	Kd [1]
ZHER2:4 affibody (designed binder)	47.9 nM	
anti-EGFR1 nanobody 7D12 (VHH)		3.5 nM
